From the supplement of paper PMC9170038

System: MS2 coat protein
Experiment: apparent KD of MS2 coat protein; designed switch direction (-1 OFF switch, 1 ON switch): 1; higher = weaker reporter binding
Summary of the method: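 Designed RNA switches with common flanks were transcribed on Illumina chips by stalled E. coli RNA polymerase and titrated with SNAP-549-labelled MS2 coat protein, from 0.7 or 1.5 nM doubling to 3 µM, in Tris-HCl pH 7.5 buffer with KCl, MgCl2, BSA, DTT, tRNA and Tween-20. Steps lasted 0.8–1.5 h (lowest) to 10–20 min (highest). Titrations ran without input, with 200 uM small-molecule ligand, or with an oligonucleotide input. Normalised cluster fluorescence was curve-fitted, and apparent KD is the per-design median over clusters.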

[1] = input ligand: microRNA oligo, concentration not stated
[2] = Eterna round: R95, input ligand: FMN 200 uM
[3] = Eterna round: R95, input ligand: microRNA oligo, concentration not stated
[4] = Eterna round: R95, input ligand: none

Sequence | apparent KD of MS2 coat protein (input ligand: FMN 200 uM) [nM] | apparent KD of MS2 coat protein [1] [nM] | apparent KD of MS2 coat protein (input ligand: none) [nM] | apparent KD of MS2 coat protein [2] [nM] | apparent KD of MS2 coat protein [3] [nM] | apparent KD of MS2 coat protein [4] [nM]
GCUGCAAUUAACGCCUACAUGAGGAUCACCCAUGUAUGUAGGCAGGAUAUCGUUUGCUUUGCAAACGAGAAGGGCCGUAGUAGC [JL SSNG3 1.12] (Eterna round: R96, puzzle: Same State NG 3) | 22.8 | 37.6 | 63.1 | – | – | –
GGAAAACAUGAGGAUCACCCAUGUAAUAAUAUGGGAGGAUAUCAGAUUUAAUUUAAUUUAUGAGAAGGCCUAAAGG [Mat - Same State 1 - Mod of Eli - D64] (puzzle: Same State 1) | – | – | – | 85 | 43.2 | 30.6
GGAAACUUGAGAGGAUAUGUAGAGGAUCACCCUACAGAAGGCUCAUUUGAGAGGAUAUGUAGAGGAUCACCCUACAGAAGGCUC [pwkr ssNG DX.13] (Eterna round: R96, puzzle: Same State NG 1) | 29.6 | 26 | 72.4 | – | – | –
GGAAAGAGGUAAGGAUAUGCAUGGCUGGGACAUGAGGAUCACCCAUGUUGGAGAAGAAAUCUAGGGUAGAAGGUACAAGGAAGG [AK SSNG2-V2-10] (Eterna round: R96, puzzle: Same State NG 2) | 240 | 220 | 203 | – | – | –
GGAAGGAGGUCAGGAUAUGAACGGAAGGUACAUGAGGAUCACCCAUGUUACGGAGGAAGGAAACGUUAGAAGGGACAAGGAAGG [AK SSNG2-V2-3] (Eterna round: R96, puzzle: Same State NG 2) | 14.8 | 12.8 | 18.1 | – | – | –
GGAAUAUGAUGUUACAUGAGGAUCACCCAUGUAGUAAUAACUAAGGAUAUCUGUUAUGAUUAAUAAGAGAAGGUAGGAUCAUAA [AK SSNG3-V2-9] (Eterna round: R96, puzzle: Same State NG 3) | 23.6 | 19 | 25.8 | – | – | –
GGAAUAUUUACAGGAUAUGAGUUGUAAAGUCGAUCAGAAGGGUAGAUGUCUUACACGGUUUGUUACAUGAGGAUCACCCAUGUU [SameState NG1 #18] (Eterna round: R96, puzzle: Same State NG 1) | 66.9 | 75.6 | 86.6 | – | – | –
GGACGUCACAUUAACAUGAGGAUCACCCAUGUCAAAAGACAUGAGGAUAUGGAUCCUAAUUGGAUCCAGAAGGCAUGGACGUCC [Fiskers NG3ss - 39] (Eterna round: R96, puzzle: Same State NG 3) | – | 373 | – | – | – | –
GGACGUCAUCUCACUGAUUAAACAUGAGGAUCACCCAUGUCACAGGAUAUGGAUCCGAUUAGGAUCCAGAAGGGUGUGACGUCC [Fiskers NG3ss - 43] (Eterna round: R96, puzzle: Same State NG 3) | 21.4 | 19.3 | 24.2 | – | – | –
GGACGUCAUCUCACUGAUUAAACAUGAGGAUCACCCAUGUCAGAGGAUAUGAGUCCGAUUAGGACUCAGAAGGCUGUGACGUCC [Fiskers NG3ss - 46] (Eterna round: R96, puzzle: Same State NG 3) | 19.6 | 9.14 | 16 | – | – | –
GGAGAGAGAGCGCAGGAUAUUCAAGGAGAAACAUGAGGAUCACCCAUGUGAGAGAGAGAGGAGAGGGAGAAGGGUGAGAGAGAGG [Altered State 2-13 - Jieux - Same State 2] (puzzle: Same State 2) | – | – | – | 23.1 | 30.4 | 33.6
GGAGCCAAGGCAGGAUAUUCAUAUUAAUAAACAUGAGGAUCACCCAUGUAGGCCAGAAGGCCUUGGGAGAAGGGCCAUGGCUCG [Xeonanis - 13 mod5] (Eterna round: R96, puzzle: Same State NG 2) | 21.3 | 120 | 196 | – | – | –
GGAGCCGGCACCGAGGAUAUUCAUAUUAAAACAUGAGGAUCACCCAUGUACGCCAGAAGGCGUUGGGAGAAGGCGGAUCGGCUCG [Xeonanis - 22] (puzzle: Same State 2) | – | – | – | 57.6 | 79.9 | 362
GGAGCCGGCCUAGGAUAUUUCAUAAAAUAACAUGAGGAUCACCCAUGUAGGCCAGAAGGCCUUGGGAAGAAGGAGGUCGGCUCC [Loop Effect - U28] (Eterna round: R96, puzzle: Same State NG 2) | 13.4 | 23.1 | 44.4 | – | – | –
GGAGCCGGCCUAGGAUAUUUCAUCAAAAAACAUGAGGAUCACCCAUGUAGGCCAGAAGGCCUUGGGAAGAAGGAGGUCGGCUCC [Loop Effect - C24] (Eterna round: R96, puzzle: Same State NG 2) | 10.2 | 14.6 | 19 | – | – | –
GGAGCCUGCACUGAGGAUAUUCGUAGUGUAACAUGAGGAUCACCCAUGUGUCGCCGUAGCGACUGGGAGAAGGCAGUGCGGCUCG [JL-ss2-3.07 ViennaUCT mod] (puzzle: Same State 2) | – | – | – | 25.9 | 48.4 | 84.3

Sequence | apparent KD of MS2 coat protein (input ligand: FMN 200 uM) [nM] | apparent KD of MS2 coat protein [1] [nM] | apparent KD of MS2 coat protein (input ligand: none) [nM] | apparent KD of MS2 coat protein [2] [nM] | apparent KD of MS2 coat protein [3] [nM] | apparent KD of MS2 coat protein [4] [nM]
GGAGCUGGCACCGAGGAUAUUCAUAUUAAAACAUGAGGAUCACCCAUGUAGGCCAGAAGGCCUUGGGAGAAGGCGGAUCAGCUCG [Xeonanis - 12] (puzzle: Same State 2) | – | – | – | 30.8 | 532 | 532
GGAUGACGGACAGGAUAUUGGUGCUAAUGGUGUCAAGAAGGGUCUUCGAUAUAUACGACCAGUUACAUGAGGAUCACCCAUGUU [JR_SSNG1_Sub034] (Eterna round: R96, puzzle: Same State NG 1) | 20.2 | 30.5 | 40 | – | – | –
GGAUGAUAGAUAGGAUAUUGAUUGUAAUUAUGUCAAGAAGGAUCUUUGAUUUAAACGACCAGUUACAUGAGGAUCACCCAUGUU [JR_SSNG1_Sub087] (Eterna round: R96, puzzle: Same State NG 1) | 23.3 | 30.4 | 43.6 | – | – | –
GGAUGAUUAAUAGGAUAUUAUUUGUAAAAUGGUUAAGAAGGAUUAAUGAUUUAAACGACCAGAUACAUGAGGAUCACCCAUGUA [JR_SSNG1_Sub091] (Eterna round: R96, puzzle: Same State NG 1) | – | 19.5 | – | – | – | –
GGCACAAAAGCACAGGAUAUGCAAAAGAACACAUGAGGAUCACCCAUGUAGCCAAAUAACGGGCAGCAGAAGGGUGGGACUGCCA [Ceridi] (puzzle: Same State 2) | – | – | – | 78.2 | 693 | 485
GGCAGGUGCAGGCUUGCUUGCACCUGGAAACAUGAGGAUCACCCAUGUUUGGGACAAGCUUUGCUCCUCGUCUUAUC [JL ViennaUCT Isusreraar mod 1] (puzzle: Sensor for hsa-mir-208a) | – | – | – | 179 | 43.1 | 232
GGCAGGUGCAGGCUUGCUUGCACCUGGAAACAUGAGGAUCACCCAUGUUUGGGACAAGCUUUGCUCUUCGUUUUGUC [JL ViennaUCT Isusreraar mod 4] (puzzle: Sensor for hsa-mir-208a) | – | – | – | 35.3 | 40.4 | 47
GGCCAGAGUCAAGGAUAUGCUACCGUUUCGGUAGCAGAAGGUGAUCACAUGAGGAUCACCCAUGUAUACGCUGGAAAGCGGGCC [JL SSNG1 3.64] (Eterna round: R96, puzzle: Same State NG 1) | 452 | 480 | 1430 | – | – | –
GGCCGGCCGAACGGAGGGCCACAUGAGGAUCACCCAUGUACAUAGGAUAUCAUGUCAACGAGGCAUGAGAAGGGUGAUUAAAGC [Orenriaran] (Eterna round: R96, puzzle: Same State NG 3) | 65 | 72.9 | 57.7 | – | – | –
GGCGAACAGGCCGACAUGAGGAUCACCCAUGUGGCCUCAUGUCAGGAUAUCGGGAAGGAGGAAACCGAGAAGGGACGGUGAGCC [AK SSNG3-V2-44] (Eterna round: R96, puzzle: Same State NG 3) | 88.9 | 5.6 | 65.1 | – | – | –
GGCGAACAGGCUAACAUGAGGAUCACCCAUGUGGACUCAUGUUAGGAUAUCGGGAAGGAGGAAACCGAGAAGGGACGGUGAGCU [AK SSNG3-V2-45] (Eterna round: R96, puzzle: Same State NG 3) | 191 | 18 | 34.1 | – | – | –
GGCGAACAGGCUAACAUGAGGAUCACCCAUGUGGACUUCGUGUAGGAUAUCGGGAAGGAGGAAACCGAGAAGGGCAAAGAAGCC [AK SSNG3-V2-49] (Eterna round: R96, puzzle: Same State NG 3) | 195 | 88.2 | 93.7 | – | – | –
GGCGCGGUCUCGCAGGAUAUCCACAAUCCUACAUGAGGAUCACCCAUGUCGCUGCAGGAUAUUAGGGAGAAGGGUGAUGCCGCGG [Bereri] (puzzle: Same State 2) | – | – | – | 20 | 30.4 | 41.6
GGCGUCUGUCAAGGAUAUGCUACCGUUUCGGUAGCAGAAGGUGAUCACAUGAGGAUCACCCAUGUUUAGGCCAACAGGCCCGCC (Eterna round: R96, puzzle: Same State NG 1) | 1270 | 222 | 1410 | – | – | –
GGUAAACAUGAGGAUCACCCAUGUAAUAAUAUGGGAGGAUAUGGGAAUUAAUUAAUUAAACCAGAAGGCCUAAUGU [Mat - Same State 1 - D87] (puzzle: Same State 1) | – | – | – | 53.1 | 536 | 519
